# Experimental data: PMC9256654, “Mechanistic basis for maintenance of CHG DNA methylation in plants” (Nature Communications, 2022)
# B1: histone H3 peptide residues 1-32 harboring the Kc9me2 modification (methyl-lysine analog of H3K9me2) (peptide)
# peptide: not shown
# modifications: Kc9me2: cysteine 9 (K9C) alkylated with (2-chloroethyl)-dimethylammonium chloride to the methyl-lysine analog of dimethyl-lysine
# notes: Histone H3 residues 1-32; The removal of the His6-SUMO tag is told only through 'initial purification as described above'; also called H3_(1–32)Kc9me2; H3Kc9me2; source: E. coli BL21 DE3 (RIL), purified (HiTrap SP HP), alkylated, purified again (HiTrap SP HP); not shown: His6-SUMO, N-terminal, cleaved
# Molecular target: T1, Zea mays ZMET2 (residues 130-912), core fragment harboring the CD, BAH and MTase domains (Zea mays, UniProt Q9AXT8 130-912, in the crystallised complex C517 is covalently linked to the target 5-fluorocytosine (fC10) of the hmCAG DNA)
# T1 construct: ZMET2, chromomethylase, CMT3 ortholog of Zea mays, residues 130-912; in the enzymatic assays and the EMSA the free protein was used; also called WT ZMET2; source: E. coli BL21 DE3 (RIL), purified (Ni-NTA, Heparin HP, Superdex 200); not shown: His6-SUMO, N-terminal, cleaved
# T1 sequence (looked up): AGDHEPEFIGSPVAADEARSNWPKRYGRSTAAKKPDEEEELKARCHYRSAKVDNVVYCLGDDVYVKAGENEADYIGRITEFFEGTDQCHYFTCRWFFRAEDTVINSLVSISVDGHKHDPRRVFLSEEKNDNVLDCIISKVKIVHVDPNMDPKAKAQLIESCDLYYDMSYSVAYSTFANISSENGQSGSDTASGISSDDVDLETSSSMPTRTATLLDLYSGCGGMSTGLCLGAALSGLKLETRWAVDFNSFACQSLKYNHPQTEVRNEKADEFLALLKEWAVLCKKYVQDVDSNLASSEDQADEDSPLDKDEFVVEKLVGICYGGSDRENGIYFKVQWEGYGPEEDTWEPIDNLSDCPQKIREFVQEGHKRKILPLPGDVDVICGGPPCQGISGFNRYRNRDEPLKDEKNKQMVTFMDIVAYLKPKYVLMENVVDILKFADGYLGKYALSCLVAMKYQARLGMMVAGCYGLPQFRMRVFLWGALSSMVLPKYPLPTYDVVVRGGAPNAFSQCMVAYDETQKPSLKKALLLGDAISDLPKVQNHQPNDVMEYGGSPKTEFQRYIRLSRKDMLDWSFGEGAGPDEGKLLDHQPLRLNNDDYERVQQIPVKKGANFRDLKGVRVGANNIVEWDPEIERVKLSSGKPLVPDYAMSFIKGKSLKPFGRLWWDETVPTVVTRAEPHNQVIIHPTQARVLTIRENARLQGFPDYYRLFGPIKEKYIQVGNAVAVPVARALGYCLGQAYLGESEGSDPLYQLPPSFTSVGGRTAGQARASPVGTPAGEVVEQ
# Assay: crystal structure; covalent ZMET2-hmCAG DNA complex with the H3_(1–32)Kc9me2 peptide and SAH; sitting drop at 4 °C, 0.1 M sodium citrate pH 5.5, 15% w/v polyethylene glycol 6000
# Settings: both partners purified
binder,measurement,value
B1,stoichiometry N,2 peptides per ZMET2 complex
